Values of other authors as cited in patent US12653898B2, “Polyoxyethylene derivatives and conjugates thereof” (NATIONAL UNIVERSITY CORPORATION HOKKAIDO UNIVERSITY, priority 2023, dated 2026).
Read-outs that look alike come from different tables or passages of the source.

Details: under physiological conditions

B1: conjugate of bovine pancreas-derived ribonuclease A (RNase A) and compound 7: conjugate of RNase A and compound 7 (1-benzyl-1H-1,2,3-triazole-4-carbaldehyde) of WO 2020/175680 (conjugate, UniProt P61823 27-150, looked up)
Ribonuclease pancreatic: KETAAAKFERQHMDSSTSAASSSNYCNQMMKSRNLTKDRCKPVNTFVHESLADVQAVCSQKNVACKNGQTNCYQSYSTMSITDCRETGSSKYPNCAYKTTQANKHIIVACEGNPYVPVHFDASV
modifications: triazole carbaldehyde compound 7 conjugate
degradation half-life (FIG. 54 of WO 2020/175680): 12 to 18 h
degradation half-life (comparison value from WO 2020/175680): 12 to 18 h
